Reference: patent US20100135951A1

Target: TRAIL-R2 (human) (UniProt O14763)
Assay: cell-based or functional assay

Chain of TRAIL-R2 (human) (O14763 other isoform, or with tags, fused parts or gaps limits assumed): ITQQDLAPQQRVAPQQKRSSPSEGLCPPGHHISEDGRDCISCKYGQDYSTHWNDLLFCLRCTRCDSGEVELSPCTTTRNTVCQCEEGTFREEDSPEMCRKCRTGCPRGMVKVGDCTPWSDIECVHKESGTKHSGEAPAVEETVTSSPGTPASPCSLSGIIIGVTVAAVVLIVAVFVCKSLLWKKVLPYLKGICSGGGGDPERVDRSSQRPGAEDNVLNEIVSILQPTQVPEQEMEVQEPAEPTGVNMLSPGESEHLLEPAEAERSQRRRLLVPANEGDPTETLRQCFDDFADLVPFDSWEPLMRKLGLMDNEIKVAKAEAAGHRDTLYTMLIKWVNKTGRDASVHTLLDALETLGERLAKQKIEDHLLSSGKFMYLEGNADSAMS

## TRA-8 (antibody)
  cell death (ATPLITE cell viability assay): 100%
